Molecular target: CM19XA (UniProt P15391)
Assay: SEC; ENrich SEC 650 column on an NGC system, running buffer PBS, peak positions compared with BioRad size exclusion standards; after Ni-NTA purification

- stoichiometry N: 2
Substance: CM19XA (from UniProt P15391 20-291; Q9Y624 28-238)

Source: publication PMC8962422
